From paper PMC3340929

target: NFS1–ISD11–ISCU2 protein complex (SDU) (human) (UniProt Q9HD34); assay: enzyme activity titration

Compared with “FXN N146A variant (from UniProt Q16595 82-210) (natural protein)”, “FXN N146K variant (FRDA missense mutation) (from UniProt Q16595 82-210) (natural protein)” is 4.6-fold higher in Kd: 1.35 µM for the first, 6.25 µM for the second.

Going from “FXN Q148G variant (from UniProt Q16595 82-210) (natural protein)” to “FXN Q148R variant (FRDA missense mutation) (from UniProt Q16595 82-210) (natural protein)”, the Kd falls from 2.17 µM to 0.85 µM (2.6-fold).

“FXN Q153A variant (from UniProt Q16595 82-210) (natural protein)” and “FXN R165C variant (FRDA missense mutation) (from UniProt Q16595 82-210) (natural protein)” are within 1.5-fold of each other in Kd: 7.5 µM for the first, 10.4 µM for the second.
